Results: patent publication US12221488B2, “APJ antibody, fusion protein thereof with Elabela, and pharmaceutical compositions and use thereofus01” (GMAX BIOPHARM LLC, priority 2018, dated 2025)
Where no end group is shown, it is not given here.

T1: hAPJ (Homo sapiens, UniProt P35414)
T1 construct: expressed in transfected cells; host or cells: CHO-DHFR- cells expressing hAPJ and a CRE-luciferase reporter
T1 sequence (P35414 1-380): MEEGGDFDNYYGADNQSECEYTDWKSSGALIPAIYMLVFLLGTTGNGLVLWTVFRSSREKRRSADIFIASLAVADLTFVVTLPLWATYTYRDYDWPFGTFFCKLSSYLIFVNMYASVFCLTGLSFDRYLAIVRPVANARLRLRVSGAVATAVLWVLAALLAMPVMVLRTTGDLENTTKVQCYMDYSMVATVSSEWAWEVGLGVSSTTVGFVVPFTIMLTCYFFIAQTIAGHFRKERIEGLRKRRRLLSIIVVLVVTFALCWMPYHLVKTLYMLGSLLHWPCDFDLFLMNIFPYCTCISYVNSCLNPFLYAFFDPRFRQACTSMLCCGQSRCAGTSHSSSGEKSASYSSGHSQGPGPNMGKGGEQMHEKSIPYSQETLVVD

B1: L1H1: APJ antibody with light chain variable domain SEQ ID NO: 59 and heavy chain variable domain SEQ ID NO: 64 (antibody, listed as Mus musculus, V domains shown)
VH: EVQLIETGGGLVQPTGSLQLSCAASGFPFNINAMNWVRQAPGKGLEWVARIRSKSNNYATYYADSVKDRFTISRDDSQSILYLQMNNLKTEDSAMYFCVRGPYLYAMDYWGQGTSVTVSS
VL: DIQMNQSPSSLSASLGDTITITCHASQNIHVWLSWYQQKPGNIPKLLIYKASNLHTGVPSRFSGSGSGTGFTLTISSLQPEDIATYYCQQGHSYPLTFGGGTKLEIKR
B2: L4H4: APJ antibody with light chain variable domain SEQ ID NO: 62 and heavy chain variable domain SEQ ID NO: 67 (antibody, listed as Mus musculus, V domains shown)
VH: EIKLVESGGGLVKPRGSLKLSCAASGFTFSSYAMSWVRQTPEKRLEWVASISSGGSIYLPDSLKGRFTISRDNAWNILYLQMNSLKSEDTAMYYCTRGRGNSSAWFAYWGQGTLVTVSA
VL: DVLMTQTPLSLPVSLGDQASISCRSDQSLVHRTGNTHLDWYLQKPGQSPKLLIYKVSNRFSGVPDRFSGSGSGTDFTLKISRVEAEDLGVYYCFQASHIPFTFGSGTKLEIKR

What was measured:
hAPJ [1] = target: T1, hAPJ; assay: Reporter gene assay (hAPJ-CRE-Luciferase CHO-DHFR- cells) of in vitro activation of Elabela/APJ signaling pathway; assay type: cell-based; conditions: for EC50: 0.6 μM forskolin, 6 hours at 37° C., Bright Glo readout; for blocking or activation of APJ receptor by the antibody: reporter gene assay
Procedure: 35000 hAPJ-CRE-Luciferase expressing CHO-DHFR-cells per well were seeded into 96 well plate, and cultured overnight at 37° C. The culture supernatant was removed the second day, cells were washed twice with serum-free medium, and the residue liquid was aspirated. 50 μL of 0.6 μM forskolin was added in 96 well plate in advance, then 50 μL of Elabela fusion protein or Elabela-11 polypeptide diluted in serum-free medium was added, and incubated at 37° C. for 6 hours. After stimulation, 100 μL Bright Glo chemical luminescence substrate (Promega) was added, then the cell lysate was transferred to white 96 well plate, and the relative intensity of […] was read in the SpectraMax L (Molecular Devices). The data were fitted with prism5.0 and EC50 was calculated.

hAPJ [2] = target: T1, hAPJ; assay: FACS analysis of binding of APJ antibodies to CHO-DHFR-hAPJ cells; conditions: mouse ascites antibody at 500 nM and 4 nM on CHO-DHFR-hAPJ; negative control 500 nM on blank CHO-DHFR- cells
Procedure: PBS containing EDTA was used to detach and collect 10^5 CHO-DHFR-hAPJ cells into 1.5 mL EP tubes. The supernatant was removed after centrifugation. The negative control sample was resuspended with a FACS loading buffer (PBS, 2% FBS). For the positive control, 200 μL antibody supernatant with certain concentration was added to resuspend cells and then incubated at room temperature; the cells were then centrifuged at 1500 rpm to remove the supernatant, washed with a FACS loading buffer and centrifuged again. The cells were resuspended followed by addition (200 μL/well) of a FITC labeled goat anti-mouse fluorescent secondary antibody at 1:50 dilution and incubated at room temperature for 30 min in the dark. Supernatant was removed after centrifugation, cells were washed with FACS loading buffer, centrifuged again and resuspended with the loading buffer for analysis.

Molecule | EC50 (hAPJ [1]) [nM] | blocking or activation of APJ receptor by the antibody (hAPJ [1]) | specific binding to hAPJ (FACS peak shift versus negative control) (hAPJ [2]) | further results
L5H5 and Linker2-EA5: fusion protein of hAPJ antibody L5H5 and Linker2-EA5 (comprising SEQ ID NO: 123 and SEQ ID NO: 94) (GGGGSGGGGSQRRCMPLHSRVPAP; also: fused to hAPJ antibody L5H5) | 2.6 | – | – | EC50 (hAPJ [1]; listed as L5H5 and linker2-EA5): 2.55 nM
L5H5 and Linker2-EA3: fusion protein of hAPJ antibody L5H5 and Linker2-EA3 (comprising SEQ ID NO: 123 and SEQ ID NO: 109) (GGGGSGGGGSQRRCMPLHSRVPMPF; also: fused to hAPJ antibody L5H5) | 20.3 | – | – | EC50 (hAPJ [1]; listed as L5H5 and linker2-EA3): 20.3 nM
L5H5 and Linker2-EA4: fusion protein of hAPJ antibody L5H5 and Linker2-EA4 (comprising SEQ ID NO: 123 and SEQ ID NO: 116) (GGGGSGGGGSQRRCLSHKGPMPF; also: fused to hAPJ antibody L5H5) | 5.4 | – | – | EC50 (hAPJ [1]; listed as L5H5 and linker2-EA4): 5.43 nM
B1 | – | did not block or activate APJ receptor | shifted to the right obviously | –
B2 | – | did not block or activate APJ receptor | shifted to the right obviously | –
